Assay results as given in patent publication US20240425569A1 (VISTERRA, published 2024).
Like-named read-outs stand apart in the source and are kept apart here.

Legend:
[1] = molecular target: T1, EDIII-DV2 (E protein domain III of dengue virus serotype DV-2) (dengue virus serotype DV-2, UniProt P14337 573-677); test: competition ELISA
T1 construct: also called DENV-2; EDIII of DV-2

[2] = molecular target: T2, EDIII-DV4 (E protein domain III of dengue virus serotype DV-4) (dengue virus serotype DV-4, UniProt P09866 572-679); test: competition ELISA; column 'EDIII-DV4 [1/7]'
T2 construct: also called DENV-4

[3] = molecular target: T3, New Guinea/1944 (NGC)* (serotype II EDIII) (Dengue virus 2); test: Kd table, method not stated; Ag DENV-2 NGC
T3 construct: isolated EDIII protein; also called EDIII of DENV-2 NGC
T3 sequence (P14340 578-673): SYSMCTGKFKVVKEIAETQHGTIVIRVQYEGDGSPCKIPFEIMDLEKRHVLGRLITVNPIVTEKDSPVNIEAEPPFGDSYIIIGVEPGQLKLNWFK

[4] = molecular target: T4, Singapore/2009 (serotype III EDIII)
T4 construct: also called ED3-DV3/Sing09; DENV-3 Sing
T4 E protein domain III (EDIII): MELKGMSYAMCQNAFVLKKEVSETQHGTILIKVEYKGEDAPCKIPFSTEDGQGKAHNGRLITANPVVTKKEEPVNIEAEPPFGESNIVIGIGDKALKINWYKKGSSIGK

[5] = molecular target: T5, Mexico/2007 (serotype I EDIII)
T5 construct: also called ED3-DV1/Mexico07
T5 E protein domain III (EDIII): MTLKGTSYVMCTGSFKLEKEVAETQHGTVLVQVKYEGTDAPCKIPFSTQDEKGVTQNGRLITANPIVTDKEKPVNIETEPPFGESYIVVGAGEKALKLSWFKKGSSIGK

[6] = molecular target: T6, Vietnam/2008 (serotype I EDIII)
T6 construct: also called ED3-DV1/Viet08
T6 E protein domain III (EDIII): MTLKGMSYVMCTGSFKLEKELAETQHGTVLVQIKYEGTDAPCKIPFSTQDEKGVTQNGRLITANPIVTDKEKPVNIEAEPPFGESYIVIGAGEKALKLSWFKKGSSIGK

[7] = molecular target: T7, Malaysia/2005 (serotype I EDIII)
T7 construct: also called ED3-DV1/Malaysia05
T7 E protein domain III (EDIII): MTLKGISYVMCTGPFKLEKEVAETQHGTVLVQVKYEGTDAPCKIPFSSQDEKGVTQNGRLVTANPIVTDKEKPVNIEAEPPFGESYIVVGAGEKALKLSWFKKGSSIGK

[8] = molecular target: T8, Peru/1995 (serotype II EDIII); test: SPR; row Peru/1995, serotype II, genotype American
T8 construct: also called ED3-DV2/Peru95; DENV-2 Peru

[9] = molecular target: T9, Venezuela/2008 (serotype IV EDIII); test: SPR; row Venezuela/2008, serotype IV, genotype IIa
T9 E protein domain III (EDIII): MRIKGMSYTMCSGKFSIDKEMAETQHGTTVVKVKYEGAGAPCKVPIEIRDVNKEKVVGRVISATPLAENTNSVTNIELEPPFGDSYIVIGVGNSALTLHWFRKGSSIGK

[10] = molecular target: T10, Thailand/1997 (serotype IV EDIII); test: ELISA; row Thailand/1997, serotype IV, genotype III
T10 E protein domain III (EDIII): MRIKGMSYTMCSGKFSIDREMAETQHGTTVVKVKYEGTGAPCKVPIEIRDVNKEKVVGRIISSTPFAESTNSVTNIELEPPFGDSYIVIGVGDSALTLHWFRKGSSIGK

[11] = molecular target: T11, Nicaragua/2010 (serotype III EDIII)
T11 construct: also called ED3-DV3/Nicaragua10; DENV-3 Nic
T11 E protein domain III (EDIII): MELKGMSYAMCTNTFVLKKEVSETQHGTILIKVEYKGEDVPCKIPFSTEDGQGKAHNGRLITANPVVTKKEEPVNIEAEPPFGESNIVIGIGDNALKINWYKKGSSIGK

[12] = molecular target: T12, New Caledonia/2009 (serotype IV EDIII); test: SPR; row New Caledonia/2009, serotype IV, genotype IIb
T12 construct: also called ED3-DV4/NewCal09; DENV-4 NC
T12 E protein domain III (EDIII): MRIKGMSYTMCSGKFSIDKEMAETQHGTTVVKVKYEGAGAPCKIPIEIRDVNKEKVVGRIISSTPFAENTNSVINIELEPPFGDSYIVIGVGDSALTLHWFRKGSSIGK

[13] = molecular target: ED3-DV4/H241/Phil56 (EDIII of DENV-4 strain H241) (dengue virus serotype DENV-4, strain …, UniProt Q58HT7 572-679); test: SPR; row Philippines/1956 (H241)*, serotype IV, genotype I
[14] = molecular target: T13, Philippines/1956 (H87)* (serotype III EDIII) (Dengue virus 3); test: ELISA; row Philippines/1956 (H87)*, serotype III, genotype I
T13 construct: isolated EDIII protein
T13 sequence (P27915 576-671): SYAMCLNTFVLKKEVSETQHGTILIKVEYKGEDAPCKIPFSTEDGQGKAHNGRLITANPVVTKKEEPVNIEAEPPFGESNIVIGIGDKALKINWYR

[15] = molecular target: T14, EDIII-DV1 (E protein domain III of dengue virus serotype DV-1) (dengue virus serotype DV-1, UniProt P17763 573-680)
T14 construct: also called DENV-1; EDIII of DV-1
T14 chain: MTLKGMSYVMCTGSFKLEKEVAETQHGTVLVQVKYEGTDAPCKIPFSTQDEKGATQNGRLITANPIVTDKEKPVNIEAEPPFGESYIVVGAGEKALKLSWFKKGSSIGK

[16] = molecular target: T1, EDIII-DV2 (E protein domain III of …)
[17] = molecular target: T15, Venezuela/2007 (serotype II EDIII); test: ELISA; row Venezuela/2007, serotype II, genotype SE-Asian/American
T15 construct: also called ED3-DV2/Venezuela07
T15 E protein domain III (EDIII): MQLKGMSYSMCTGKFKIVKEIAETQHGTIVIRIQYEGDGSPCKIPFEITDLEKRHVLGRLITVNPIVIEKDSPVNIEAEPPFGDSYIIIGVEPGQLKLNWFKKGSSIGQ

T1 sequence (P14337 573-677, tags left off): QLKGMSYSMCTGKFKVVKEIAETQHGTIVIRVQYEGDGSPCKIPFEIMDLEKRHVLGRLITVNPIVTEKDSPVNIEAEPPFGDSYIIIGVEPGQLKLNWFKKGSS

B1: antibody D88 (antibody, V domains shown)
VH: QVQLVQSGAEVKKPGASVKVSCKAGFNIKDVYMSWVRQAPEQGLEWMGRIDPENGDTKYDPKLQGRVTMTADTSTNTAYMELRSLRSDDTAVYYCARGWEGFAYWGQGTLVTVSS
VL: DIVMTQSPASLAVSLGERATISCRASENVDKYGNSFMHWYQQKPGQPPKLLIYRASELQWGVPDRFSGSGSGTDFTLTISSLQAEDVAVYYCQRSNEVPWTFGQGTKLEIK
notes: also called mAb D88
- Kd [1]: < 0.1 nM
- Kd [2]: 3.12 nM
- Kd [3]: < 0.1 nM
- Kd [4]: 0.33 nM
- Kd [5]: < 0.1 nM
- Kd [6]: < 0.1 nM
- Kd [7]: 0.064 nM
- Kd [8]: 0.012 nM
- Kd [9]: 3.03 nM
- Kd [10]: 612 nM
- Kd [11]: 4.91 nM
- Kd [12]: 8.9 nM
- Kd [13]: 118 nM
- Kd [14]: 1.24 nM
- Kd [15]: 0.041 nM
- Kd [16]: 0.016 nM
- Kd [17]: < 0.1 nM
